{
  "source": "paper PMC7979752",
  "key": {"[1]": {"target": "SmhC (S. marcescens MSU-97)"}, "[2]": {"target": "SmhB (S. marcescens MSU-97)", "experiment": "crystal structure; SmhB pore form, crystallised in 0.2 M calcium chloride, 40% MPD, 16 °C; space group C2, 6.98 Å"}},
  "data": [
    {"substance": "SmhB (natural protein)", "values": [
      {"measurement": "percentage lysis of horse erythrocytes with equimolar SmhB and SmhC, 2 h", "setting": "[1]", "result": 5, "unit": "%"},
      {"measurement": "stoichiometry N", "setting": "[2]", "result": 10}
    ]}
  ]
}
